Experiments:
Type in all cases: biochemical
[1] = Reaction for releasing fructosyl valine from FVHL by angiotensin-converting enzyme; settings: 20 U/ml enzyme solution, 2 mM FVHL, 37° C., 1 hour; 730 nm
Description: Then, 200 μl of a coloring solution (50 mM Tris-HCl (pH 7.5), 0.1% Triton X-100, 5 U/ml POD, 50 U/ml FOD2, and 0.02 mM DA-64) was added to each resultant, and the mixture was allowed to react at 37° C. for 5 minutes. Thereafter, 500 μl of 0.5% SDS was added to terminate the coloring reaction, and the absorbance at 730 nm was determined. The same reaction was performed except that distilled water was used instead of the 2 mM FVHL solution. Meanwhile, 200 μl of the coloring solution was added to 40 μl of an FV solution (0, 5, 10, 20, or 50 μM), and determination was performed in the same way as above.

[2] = Substrate specificity of ketoamine oxidases; settings: for absorbance difference (A1 − Ab): pH 7.5, 37° C., 5 minutes, 555 nm; for relative activity: FVH = 100 (FOD2: FZK = 100)
Description: (§1) Determination was performed by the same method described in <Reference Example: Substrate Specificity of Ketoamine Oxidase derived from Curvularia clavata YH923 (FERM BP-10009), Ketoamine Oxidase derived from Neocosmospora vasinfecta 474, and Ketoamine Oxidase derived from Fusarium oxysporum (manufactured by Asahi Kasei Pharma)>.

[3] = Substrate specificity of ketoamine oxidases; settings: for absorbance difference (A1 − Ab): pH 7.5, 37° C., 5 minutes, 555 nm; for relative activity: FVH = 100 (FOD2: FZK = 100); remark: listed apart in the source
Description: The phrase “reactivity of a ketoamine oxidase to ε-1-deoxyfructosyl-(α-benzyloxycarbonyl-L-lysine) (hereinafter also referred to as FZK) is 5% or less compared with that to 1-deoxyfructosyl-L-valyl-L-histidine (hereinafter also referred to as FVH)” refers to the fact that the rate of the reactivity is 5% or less, which is determined by the following steps: adding 20 μl of a ketoamine oxidase solution to 200 μl of a reaction solution (50 mM Tris-HCl buffer (pH 7.5), 0.1% Triton X-100, 0.03% 4-aminoantipyrine, 0.02% TOOS, 5 U/ml peroxidase, and 2 mM FZK or FVH); allowing the mixture to react at 37° C. for 5 minutes; adding 0.5 ml of 0.5% SDS; determining an absorbance at 555 nm (A1); performing the same operations using a reaction solution containing no FZK and FVH to determine an absorbance (Ab); and determining the reactivity from the difference (A1−Ab).
as §1

[4] = Specificity of mutant ketoamine oxidase to various substrates; settings: Table 17; FVH = 100
Description: 100 μl of a preliminary sterilized expression medium (a medium containing 3% of sorbitol, 1.5% of polypeptone, 1.5% of yeast extract, and 50 μg/ml of ampicillin and adjusted to pH 7.0) was added to a 96-well microplate. Grown transformants were inoculated thereto and cultured overnight at 30° C. After the termination of the culture, each 5 μl of the culture solution was dispensed into two wells of a 96-well plate and 50 μl of a determination reagent (a 50 mM Tris-HCl buffer (pH 7.5) containing 1 mM FVH or FZK, 0.02% TOOS, 0.02% 4-aminoantipyrine and 10 U/ml peroxidase) was added to each well, and a reaction was carried out at 30° C. for 10-60 minutes. 150 μl of 0.5% SDS was added thereto to terminate the reaction and absorbance was determined at 550 nm using a Microreader (model 450, manufactured by Bio-Rad). From the constructed mutant library, a recombinant which produces ketoamine oxidase that act on FVH but has a decreased activity on FZK was selected. As a result of the screening, 923-F1 and 923-F2 were obtained as favorable mutant strains. Ketoamine oxidase genes harbored by those mutant strains were sequenced and resulted that mutations were introduced in the bases indicated by Table 15.
Note that, concentration of each substrate was set to be 1 mM and other reaction conditions were set according to the activity determination method described in <Screening of Mutant Ketoamine Oxidase having Decreased Action on FZK>.
Ketoamine oxidase derived from Neocosmospora vasinfecta 474 (FOD474) has high homology to ketoamine oxidases containing FOD923 and its amino acid sequence at an N-terminal region containing 158 of FOD923 is highly conserved as shown in FIG. 1. Using pPOSFOD474, FOD474 mutant strain 474-F1 in which 158 of FOD474 is substituted by a different amino acid (threonine) was acquired. […] 58 is a site that strongly affect on the specificity to FVH even in a case of a ketoamine oxidase derived from other microorganism species.

[5] = pH dependency of activity of ketoamine oxidase
Description: (§2) 20 μl of an enzyme solution was added to 200 μl of a reaction solution (50 mM buffer, 0.1% Triton X-100, 0.03% 4-aminoantipyrine, 0.02% TOOS, 5 U/ml peroxidase, 2 mM substrate). The whole was incubated at 37° C. for 5 minutes and then 500 μl of 0.5% SDS was added thereto followed by determining absorbance at 555 nm. Tris-HCl (pH 7.5, 8.0, 8.5), PIPES (pH 6.0, 6.5, 7.0), and Bistris-HCl (pH 5.0, 5.5, 6.0, 6.5) were used as the buffers for determination. Also, absorbance was determined using a reaction solution containing no substrates. Differences in the absorbance when FVH and FZK each were used as a substrate and concentrations of the enzyme in the enzyme solution to be used are described in Table 18.

[6] = pH dependency of specific activity (FZK/FVH)
Description: as §2

B1: ACEP: angiotensin-converting enzyme derived from porcine kidney (manufactured by Sigma Corporation) (protein, UniProt F1RRW5 34-1309, looked up)
Angiotensin-converting enzyme: LDSALQPGNFTADEAGAEDFAQSFNSSSEQVLFQSTAASWAHDTNITEENARRQEEAALISQEFSEVWGQKAKALYDPIWQNFTSRTLRRIIGVVRTLGSANLSPAKRQQYNSLLSNMTRIYSTAKVCFPNKTATCWSLDPELTNILATSRSYTLLLYAWEGWHNAAGIPLKPLYQDFTALSNEAYKQDGFSDTGAYWRSLYDSPTFTEDLERLYHQLEPLYLNLHAYVRRALHRQYGDRFINLRGPIPAHLLGNMWAQSWNNIYDMVVPFPGKPSLDVTSAMVQKGWNVTHMFRVAEEFFTSLGLLPMPPEFWAESMLEKPSDGREVVCHASAWDFYNRKDFRIKQCTQVTMDQLSTVHHEMGHVQYYLQYKDQHVSLRRGANPGFHEAIGDVLALSVSTPAHLHKIGLLDHVTSDWESDINYLLKMALEKIAFLPFGYLVDQWRWGVFSGRTPPLYNYDWWYLRTKYQGVCPPVVRNETHFDAGAKYHVPNVTPYIRYFVSFILQFQFHQALCKEAGHQGPLHQCDIYQSTRAGAKLRAVLQAGSSRPWQEVLKDMVGSGALDAQPLLDYFQPVTQWLEEQNQRSGDILGWPEYQWRPPMPDNYPEGIDLVSDEAEASKFVEEYDRRSQVVLNEYAEANWDYNTNITAEGSKRVLEKSTQMANHTVKYGIWARKFDVANIQNFTLKRMIKKIQDLERAALPFKELEEYNQILLDMETAYSVASVCHANSTCLQLEPDLTNLMATSRSYEELLWAWKGWRDKVGRAILPYFPKYVELTNKAARLNGYEDGGDAWRAAYEMPFLEQELEQLFQELQPLYLNLHAYVRRALHHHYGPEHINLEGPIPAHLLGNMWAQTWSNIYDLVVPFPSASKMDASEAMINQGWTPQRMFKEADNFFTSLGLLPVPPEFWNKSMLEKPTDGREVVCHASAWDFFNGKDFRIKQCTTVNMEDLVVAHHEMGHIQYFMQYKDLPVTFREGANPGFHEAIGDVLALSVSTPKHLRSINLLKSEDDGYEEDINFLMKMALDKVAFVPFSYLVDQWRWRVFDRSITKENYNQEWWSLRLKYQGLCPPVARSQGDFDPGAKFHIPSSVPYIRYFVSFIIQFQFHEALCQAAGHKGPLHKCDIYQSKEAGRRLADAMKLGLSKPWPEAMQLITGQPNVSASAMMTYFKPLLDWLVTENGRHGEKLGWPQYNWTPNSARLEGSFAGTGRVNFLGLNLEEQQARVGQWVLLFLGVTLLVATMGLTQRLFSIRHQILRRTHRGPQFGSEVELRHS
absorbance difference showing FV released [1]: −0.006

B2: FOD474: ketoamine oxidase of Neocosmospora vasinfecta 474 that reacts with FVH, expressed in Escherichia coli (protein, listed as Neocosmospora vasinfecta)
chain: MTTPRKETTVLIIGGGGTIGSSTALHLLRAGYTPSNITVLDTYPIPSAQSAGNDLNKIMGIRLRNKVDLQLSLEARDMWRNDALFRPFFHNTGRLDCESSAEGVEGLRREYQKLVEAGVGLEETHEWLDSEEAILEKAPLLQREEIEGWKAIWSEEGGWLAAAKAINAIGEELQRQGVRFGFGGAGSFKRPLFADDGTTCIGVETVDGTQYHADKVVLAAGAWSPALVDLEEQCCSKAWVYAHMQLTPEEAAVYKGCPVVYHGDVGFFFEPNENGVIKVCDEFPGFTRFKQHQPYGAPAPKPVSVPRSHAKHPTDTYPDASEESIKRAVSTFLPRFKDKPLFNRALCWCTDTADSALLICEHPRWKNFILATGDSGHSFKLLPIIGKHVVELVEGRLADDLAEAWRWRPGQGDARKSIRAAPAKDLADMPGWKHDQDSESR
modifications: CDS (1)..(1323)
notes: ketoamine oxidase of Neocosmospora vasinfecta 474 that reacts with FVH, expressed in Escherichia coli
absorbance difference (A1 − Ab) ([2]; 2 mM FV): 0.289
absorbance difference (A1 − Ab) ([2]; 2 mM FVHL): 0.002
absorbance difference (A1 − Ab) ([2]; 2 mM FVHLT): 0.002
absorbance difference (A1 − Ab) ([2]; 2 mM FVL): 0.059
absorbance difference (A1 − Ab) ([2]; 2 mM α-glycated pentapeptide): 0.003
absorbance difference (A1 − Ab) ([2]; 2 mM β-glycated pentapeptide): 0.002
relative activity ([2]; substrate FV): 445%
relative activity ([2]; substrate FVHL): 0%
relative activity ([2]; substrate FVHLT): 0%
relative activity ([2]; substrate FVL): 0.91%
relative activity ([2]; substrate α-glycated pentapeptide): 0%
relative activity ([2]; substrate β-glycated pentapeptide): 0%
absorbance difference (A1 − Ab) ([3]; 2 mM FVH): 0.221
absorbance difference (A1 − Ab) ([3]; 2 mM FZK): 0.032
relative activity ([3]; substrate FVH): 100%
relative activity ([3]; substrate FZK): 15%
specificity, substrate FV [4]: 540
specificity, substrate FVH [4]: 100
specificity, substrate FZK [4]: 40
difference in absorbance, substrate FVH ([5]; Bistris pH 5.0): 0.023
difference in absorbance, substrate FZK ([5]; Bistris pH 5.0): 0.012
difference in absorbance, substrate FVH ([5]; Bistris pH 5.5): 0.084
difference in absorbance, substrate FZK ([5]; Bistris pH 5.5): 0.022
difference in absorbance, substrate FVH ([5]; Bistris pH 6.0): 0.187
difference in absorbance, substrate FZK ([5]; Bistris pH 6.0): 0.042
difference in absorbance, substrate FVH ([5]; Bistris pH 6.5): 0.273
difference in absorbance, substrate FZK ([5]; Bistris pH 6.5): 0.063
difference in absorbance, substrate FVH ([5]; PIPES pH 6.0): 0.265
difference in absorbance, substrate FZK ([5]; PIPES pH 6.0): 0.066
difference in absorbance, substrate FVH ([5]; PIPES pH 6.5): 0.303
difference in absorbance, substrate FZK ([5]; PIPES pH 6.5): 0.093
difference in absorbance, substrate FVH ([5]; PIPES pH 7.0): 0.243
difference in absorbance, substrate FZK ([5]; PIPES pH 7.0): 0.132
difference in absorbance, substrate FVH ([5]; Tris pH 7.5): 0.163
difference in absorbance, substrate FZK ([5]; Tris pH 7.5): 0.162
difference in absorbance, substrate FVH ([5]; Tris pH 8.0): 0.104
difference in absorbance, substrate FZK ([5]; Tris pH 8.0): 0.200
difference in absorbance, substrate FVH ([5]; Tris pH 8.5): 0.063
difference in absorbance, substrate FZK ([5]; Tris pH 8.5): 0.210
specific activity (FZK/FVH) ([6]; Bistris pH 5.0): 10.4%
specific activity (FZK/FVH) ([6]; Bistris pH 5.5): 5.2%
specific activity (FZK/FVH) ([6]; Bistris pH 6.0): 4.9%
specific activity (FZK/FVH) ([6]; Bistris pH 6.5): 4.6%
specific activity (FZK/FVH) ([6]; PIPES pH 6.0): 5.0%
specific activity (FZK/FVH) ([6]; PIPES pH 6.5): 6.1%
specific activity (FZK/FVH) ([6]; PIPES pH 7.0): 10.9%
specific activity (FZK/FVH) ([6]; Tris pH 7.5): 19.9%
specific activity (FZK/FVH) ([6]; Tris pH 8.0): 38.5%
specific activity (FZK/FVH) ([6]; Tris pH 8.5): 66.7%
